Test results reported in paper PMC8794802.

Legend:
Test in all cases: EMSA
Pus7 D256A/E71A = biological target: T1, Pus7 D256A/E71A (Saccharomyces cerevisiae, UniProt Q08647 1-676, E71A;D256A)
T1 sequence: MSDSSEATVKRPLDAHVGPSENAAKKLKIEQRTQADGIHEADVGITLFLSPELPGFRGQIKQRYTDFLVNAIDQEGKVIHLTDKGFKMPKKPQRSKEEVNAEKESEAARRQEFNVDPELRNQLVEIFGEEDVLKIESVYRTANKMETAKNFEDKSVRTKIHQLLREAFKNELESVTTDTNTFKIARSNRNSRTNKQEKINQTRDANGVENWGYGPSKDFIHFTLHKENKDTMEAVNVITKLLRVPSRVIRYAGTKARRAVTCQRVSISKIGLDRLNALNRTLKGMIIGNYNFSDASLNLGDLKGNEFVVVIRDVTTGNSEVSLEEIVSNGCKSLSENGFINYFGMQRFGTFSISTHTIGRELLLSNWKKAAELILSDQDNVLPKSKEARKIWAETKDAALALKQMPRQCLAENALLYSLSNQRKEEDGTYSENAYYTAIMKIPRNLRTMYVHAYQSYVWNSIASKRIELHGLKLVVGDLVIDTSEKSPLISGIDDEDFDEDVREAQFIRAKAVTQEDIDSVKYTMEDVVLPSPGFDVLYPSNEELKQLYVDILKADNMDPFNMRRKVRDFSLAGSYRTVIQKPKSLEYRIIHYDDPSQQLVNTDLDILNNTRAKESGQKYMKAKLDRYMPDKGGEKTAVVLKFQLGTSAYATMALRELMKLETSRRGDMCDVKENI

Pus7 D256A/N305A = biological target: T2, Pus7 D256A/N305A (Saccharomyces cerevisiae, UniProt Q08647 1-676, D256A;N305A)
T2 sequence: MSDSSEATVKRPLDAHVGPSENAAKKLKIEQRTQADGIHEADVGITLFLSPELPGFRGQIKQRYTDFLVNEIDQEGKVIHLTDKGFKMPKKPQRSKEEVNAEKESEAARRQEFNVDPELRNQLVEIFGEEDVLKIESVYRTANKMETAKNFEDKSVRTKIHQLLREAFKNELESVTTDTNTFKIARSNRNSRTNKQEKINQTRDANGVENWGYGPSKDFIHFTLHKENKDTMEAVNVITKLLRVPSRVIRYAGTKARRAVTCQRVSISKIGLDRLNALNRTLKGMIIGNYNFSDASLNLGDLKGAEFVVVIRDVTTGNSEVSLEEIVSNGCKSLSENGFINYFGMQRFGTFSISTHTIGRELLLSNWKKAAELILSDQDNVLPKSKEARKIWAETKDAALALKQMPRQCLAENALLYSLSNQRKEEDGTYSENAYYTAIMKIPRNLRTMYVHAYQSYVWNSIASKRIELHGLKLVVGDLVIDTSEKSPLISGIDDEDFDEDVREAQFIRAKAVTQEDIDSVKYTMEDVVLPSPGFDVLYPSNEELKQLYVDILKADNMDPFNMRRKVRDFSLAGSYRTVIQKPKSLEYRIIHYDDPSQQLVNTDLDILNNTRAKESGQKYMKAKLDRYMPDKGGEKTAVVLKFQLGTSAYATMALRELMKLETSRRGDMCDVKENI

Pus7 D256A/H161A = biological target: T3, Pus7 D256A/H161A (Saccharomyces cerevisiae, UniProt Q08647 1-676, H161A;D256A)
T3 sequence: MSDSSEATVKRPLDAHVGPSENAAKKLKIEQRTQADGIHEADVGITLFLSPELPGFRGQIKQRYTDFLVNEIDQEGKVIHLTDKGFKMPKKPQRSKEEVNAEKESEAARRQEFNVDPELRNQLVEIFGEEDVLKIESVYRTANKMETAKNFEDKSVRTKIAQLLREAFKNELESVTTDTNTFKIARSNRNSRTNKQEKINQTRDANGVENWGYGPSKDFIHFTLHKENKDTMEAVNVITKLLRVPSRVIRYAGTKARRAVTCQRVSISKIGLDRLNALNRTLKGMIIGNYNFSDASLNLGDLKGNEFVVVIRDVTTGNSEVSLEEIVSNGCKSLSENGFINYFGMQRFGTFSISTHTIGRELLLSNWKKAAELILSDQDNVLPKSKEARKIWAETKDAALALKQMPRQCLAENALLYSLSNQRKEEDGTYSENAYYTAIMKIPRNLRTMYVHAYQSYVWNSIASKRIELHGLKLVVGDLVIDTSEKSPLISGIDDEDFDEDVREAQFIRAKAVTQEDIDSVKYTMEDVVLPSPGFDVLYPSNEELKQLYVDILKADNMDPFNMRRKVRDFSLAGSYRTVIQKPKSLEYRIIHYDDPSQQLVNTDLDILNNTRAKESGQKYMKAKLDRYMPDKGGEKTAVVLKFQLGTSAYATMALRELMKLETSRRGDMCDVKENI

B1: CDC8 (cdc8-FL, 61 nt) (ssRNA)
RNA: GUCAAUCACGAUUGUAGACGUUACUAAUAAGGGCAUUCAGGAAGUUGAAGCGCUUAUUUGG
**Q.** For B1, which Kd (Pus7 D256A/E71A) is on record?
**A.** 210 ± 50 nM

**Q.** What about the Kd (Pus7 D256A/N305A) of the same binder?
**A.** 230 ± 60 nM

**Q.** And the Kd (Pus7 D256A/H161A)?
**A.** 170 ± 40 nM
